Reference: PMC10206189 (2023)

T1: mouse Plexin-B1 (20–535)-6xHis (mouse, UniProt Q8CJH3 20-535)
T1 chain: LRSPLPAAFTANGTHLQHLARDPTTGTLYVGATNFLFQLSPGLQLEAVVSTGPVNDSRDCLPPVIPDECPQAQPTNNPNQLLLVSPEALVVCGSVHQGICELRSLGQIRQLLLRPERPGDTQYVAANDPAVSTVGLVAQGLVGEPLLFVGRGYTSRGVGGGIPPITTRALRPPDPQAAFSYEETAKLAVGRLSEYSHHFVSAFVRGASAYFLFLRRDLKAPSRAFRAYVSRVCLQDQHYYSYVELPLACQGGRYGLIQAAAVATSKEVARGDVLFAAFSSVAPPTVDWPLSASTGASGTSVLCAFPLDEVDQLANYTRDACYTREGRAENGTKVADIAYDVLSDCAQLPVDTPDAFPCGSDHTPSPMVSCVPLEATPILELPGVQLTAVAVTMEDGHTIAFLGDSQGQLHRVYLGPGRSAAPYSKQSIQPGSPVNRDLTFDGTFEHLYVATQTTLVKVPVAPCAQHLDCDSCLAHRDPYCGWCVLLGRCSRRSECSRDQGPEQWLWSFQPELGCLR

B1: VHH15-Fc (Fc fusion)
chain: QVQLQESGGGLVQPGGSLRLSCAASGFRLDYYAIGWFRQAPGKEREGVLCISSSGGSINYADSVKGRFTISRDNAKNTVYLQMNSLKPEDTAVYYCGASSYNTQRAECYGMDYWGKGTQVTVSA
B2: VHH14-Fc (Fc fusion)
chain: QVQLQESGGGLVQAGGSLRLSCAASGFTLGYYAIGWFRQAPGKEREEVSCINASGGSTFYEDSVKGRFTISRDNAKNTVFLQMNRLKPEDTAVYYCAAACEVVAVGYWGQGTQVTVSA

Molecular target: T1, mouse Plexin-B1 (20–535)-6xHis
Assay: BLI

koff | Binder
0.002 s⁻¹ | B1
1.66e-05 s⁻¹ | B2
